Assay results taken from US8410115B2, “Methods of treating inflammatory and autoimmune diseases with alpha-4 inhibitory compounds” (Elan Pharmaceuticals, Inc., priority 2006, dated 2013).

Experiments:
JCV [1] = conditions: one MS patient with PML after natalizumab plus AVONEX; cited from earlier work
JCV [2] = conditions: in vitro; cited from earlier work
[3] = target: serotonin 5HT2(A) receptor (Homo sapiens, UniProt P28223); experiment: 5HT2(A) receptor antagonism in vitro
MS patients [4] = conditions: 2-year Phase 3 MS trials; cited from earlier work
[5] = tested on: rheumatoid arthritis patients; experiment: Deaths in rheumatoid arthritis trials of natalizumab; type: in vivo, human; conditions: natalizumab-treated rheumatoid arthritis patients
From the text: Three deaths occurred in the rheumatoid arthritis trials, two in natalizumab-treated patients and one in a patient treated with a placebo. The natalizumab-treated patients died of hemoptysis with respiratory failure and end-stage rheumatoid pulmonary disease. The placebo-treated patient died of circulatory and respiratory insufficiency.

[6] = Population pharmacokinetic analysis of natalizumab with concurrent AVONEX; type: in vivo, human
Procedure: In a placebo-controlled MS study, the administration of AVONEX® appeared to be associated with an increase in the serum concentrations of natalizumab in a small cohort on whom intensive pharmacokinetic sampling was performed. However, based upon a comparison of the mean post-hoc parameter estimates from the population pharmacokinetic analysis, steady-state clearance and half-life values differed between patients concurrently taking AVONEX® and natalizumab monotherapy, but only by approximately 5%, and were not considered clinically significant. […] It is notable that the two reports of PML in the MS database occurred in patients receiving concomitant AVONEX®. Thus, the risk of PML with natalizumab treatment may be increased by concomitant treatment with interferon β, though this could have occurred in two patients on combination therapy due to chance alone (p=0.23).

Crohn's Disease patients = experiment: Deaths in Crohn's Disease trials of natalizumab; type: in vivo, human; conditions: natalizumab-treated Crohn's Disease patients
From the text: The exposure to natalizumab was approximately three-fold greater in these trials than exposure to placebo. The causes of death were acute myocardial infarction, acute renal failure, carbon dioxide asphyxiation, PML, pneumocystis carinii pneumonia, and bronchopulmonary aspergillosis.

MS patients [7] = experiment: Safety of natalizumab in MS clinical trials (adverse events, deaths); type: in vivo, human
From the text: Eighteen treatment-emergent deaths occurred in the entire natalizumab program. The adverse events encountered in the trials, both common and serious, were similar in natalizumab-treated patients and controls. Adverse events that led to discontinuation of natalizumab occurred in 5.8% of natalizumab-treated MS patients and in 4.8% of placebo-treated MS patients, with urticaria being the most common cause of discontinuation in the natalizumab-treated patients (1.2%).
Of the eighteen deaths that occurred during the clinical trials, five occurred in the placebo-controlled MS trials (including two in patients who had received natalizumab and three who had received placebo). The patients who received natalizumab died of alcohol intoxication and metastatic malignant melanoma. The patients who received placebo died of cardiac arrest, respiratory arrest, and pleural carcinomatosis with seizures. Four deaths occurred in the open-label MS trials, due to respiratory distress, PML, suicide, and seizure due to MS.
At least one serious adverse event was encountered by 251 of the 1,617 natalizumab-treated MS patients (15.5%) and by 214 of the 1,135 placebo-treated patients (18.9%) in the placebo-controlled trial. The most common serious adverse events, classified by organ systems, were nervous system disorders (5.9% natalizumab, 10.2% placebo). […] The second most common serious adverse events were infections and infestations (2.4% natalizumab, 2.2% placebo), with appendicitis and urinary tract infection (<1% in both groups) as the most common.

[8] = Natalizumab in combination with glatiramer acetate over six months; type: in vivo, human; conditions: 20 mg daily glatiramer acetate
Procedure: The safety of natalizumab in combination with glatiramer acetate was evaluated by administering natalizumab over six months to patients who continued to receive 20 mg of daily glatiramer acetate. […] However, this study was of insufficient size or duration to establish the long-term safety or efficacy in this population.

[9] = tested on: relapsing remitting MS patients; experiment: Phase 3 monotherapy study: natalizumab versus placebo for 120 weeks; type: in vivo, human
Procedure: (§1) As described in more detail in Example 1, two Phase 3 studies were conducted to study the effect of two years of treatment with natalizumab. One of the studies used natalizumab alone (the monotherapy study) and the other used natalizumab in combination with AVONEX® (the add-on therapy study). Both these Phase 3 studies were designed with two sets of primary and secondary endpoints. The primary and secondary endpoints were selected to measure the effects of natalizumab on the inflammatory aspects of the disease after a mean of one year of follow-up in each study (900 patient-years of observation in the monotherapy study; 1,200 patient-years in the add-on therapy study).
(§2) The primary endpoint of these studies was the annualized rate of clinical relapses. Two of the secondary endpoints were two supporting MRI measures of inflammatory disease activity, namely, the mean number of new or newly enlarging T2-hyperintense lesions (measuring lesion accumulation over time) and the mean number of Gd-enhancing lesions (measuring acute disease activity), as ranked in order of importance. The proportion of patients remaining relapse-free provided a third secondary endpoint.
(§3) Another series of endpoints was assessed at the conclusion of each study following two years of natalizumab treatment. The endpoints for this final analysis were selected to determine natalizumab's effects on measures associated with MS disease progression. The primary endpoint at two years was the time until onset of sustained progression of disability, as measured by changes in EDSS scores. Similar to the one-year analysis, the secondary endpoints were additional MRI and clinical measures that would support the primary analysis. The secondary endpoints at two years, ranked in order of importance, were the rate of MS relapses (to confirm one-year relapse observations), the mean volume of T2-hyperintense lesions (a measure of overall MS disease burden), the mean number of T1-hypointense lesions (a measure of axonal loss), and progression of disability as determined by changes in the MSFC (to confirm and expand upon disability effects as measured by the EDSS).
(§4) Given two primary endpoints at two different time points (annualized relapse rate at one year, time to disability progression at two years), the Hochberg procedure for multiple comparisons (Hochberg, Biometrika 75:800-802 (1988)) was used to evaluate the primary endpoint. Each set of secondary endpoints was prioritized in order of importance as listed above. A closed testing procedure was used for each set, such that if statistical significance was not achieved for an endpoint within a set, all endpoints(s) of a lower rank in that set were not considered statistically significant.
Both Phase 3 studies had similar designs. In the monotherapy study, 942 untreated relapsing remitting MS patients were randomized to receive natalizumab or placebo for 120 weeks (30 infusions) using a 2:1 allocation. In the add-on study, 1,171 patients who had been receiving weekly intramuscular injections of 30 μg AVONEX®, but who had relapsed despite this treatment, were randomized using a 1:1 allocation to add natalizumab or placebo to their regimen, also for 120 weeks.
Efficacy parameters included EDSS scores, MS relapses, brain MRI scans, MSFC scores, visual function tests, and quality of life. EDSS and MSFC were measured every 12 weeks, brain MRI scans and quality of life questionnaires at baseline and every year, and MS relapses on an ongoing basis.
The patient population in the two Phase 3 studies were relapsing MS patients according to the criteria of the International Panel on the Diagnosis of Multiple Sclerosis (McDonald et al., Ann. Neurol. 50:121-127 (2001)). It encompassed a broad range of ages and disease severity, and represented the current relapsing MS population with active disease, consistent with the approved indication. Patients with primary- or secondary-progressive MS were excluded. […]

JCV [10] = experiment: Safety evaluation for PML / JCV in natalizumab-exposed clinical trial patients
From the text: Clinical trial patients exposed to natalizumab were systematically assessed for evidence of incipient PML or any other opportunistic infection.
Criteria were established prospectively for the neuroradiologic evidence and laboratory assays for the diagnosis of PML. A diagnosis of “confirmed PML” was defined by presence of progressive clinical disease, MRI signs typical of PML, detection of JCV DNA in CSF, or pathologic confirmation. Sufficient evidence to exclude PML was defined as lack of progressive neurological disease, MRI lesions not typical of PML or stable over time, or no detectable JCV DNA in the CSF if the MRI was suspicious. A case was deemed “indeterminate” if there was clinical or MRI suspicion of PML and follow-up clinical, MRI, or CSF data could not be obtained.
Investigators were requested to perform the assessment procedure, including medical history, neurological examination, brain MRI, and CSF collection. Blood samples were also collected for PCR analysis of JCV DNA as an exploratory adjunct. MRI scans were assessed by Central Reader Centers with expertise in neurological disorders, including the two Central Reader Centers for the original Phase 3 MS studies. A consensus guideline was developed prospectively to standardize criteria to help distinguish MS white matter abnormalities from those of PML.

[11] = tested on: relapsing MS patients relapsing despite AVONEX; experiment: Phase 3 add-on therapy study: natalizumab added to AVONEX versus AVONEX plus placebo for 120 weeks; type: in vivo, human
Procedure: as §1, §2, §3, §4
The add-on therapy study was designed to evaluate the efficacy of natalizumab against active control for patients breaking through AVONEX® monotherapy. The choice of β-interferon was supported by available data on the proposed mechanisms of action of the available drugs. As discussed above, natalizumab has a well-defined mechanism of action, specifically targeting cellular adhesion and trans-endothelial migration via α4-integrins, as do the class of alpha-4 inhibitor compounds. Although the exact mechanism by which interferon-β exerts efficacy in MS is not known, interferon-β induces a large number of cellular processes involved in cytokine secretion and cellular phenotype changes. […]

[12] = mean post-hoc parameter estimates, population pharmacokinetic analysis

Sequence of serotonin 5HT2(A) receptor (P28223 whole entry): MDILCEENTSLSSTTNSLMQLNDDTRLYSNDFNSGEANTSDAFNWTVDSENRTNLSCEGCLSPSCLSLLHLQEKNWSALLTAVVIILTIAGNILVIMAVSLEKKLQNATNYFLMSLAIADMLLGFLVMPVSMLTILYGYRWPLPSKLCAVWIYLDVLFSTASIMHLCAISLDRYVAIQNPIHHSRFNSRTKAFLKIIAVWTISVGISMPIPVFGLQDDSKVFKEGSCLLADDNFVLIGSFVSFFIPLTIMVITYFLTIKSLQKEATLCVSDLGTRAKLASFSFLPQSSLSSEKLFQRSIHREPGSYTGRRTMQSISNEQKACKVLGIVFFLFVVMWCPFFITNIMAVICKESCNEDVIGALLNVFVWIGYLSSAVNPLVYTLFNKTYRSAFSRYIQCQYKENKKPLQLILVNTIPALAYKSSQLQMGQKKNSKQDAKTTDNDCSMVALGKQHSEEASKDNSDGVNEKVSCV

In the case of `Nc1ccn(C[C@@H](CO)OCP(=O)(O)O)c(=O)n1` [Cidofovir, cidofovir], the “Clinical effect in PML” value (JCV [1]) is listed as “without clinical effect”.
In the case of `CN(C)CCCN1c2ccccc2Sc2ccc(Cl)cc21` [chlorpromazine], the “Block of JCV cell entry” value (JCV [2]) is given as “block”.
In the case of `O=C1Cc2cc(CCN3CCN(c4nsc5ccccc45)CC3)c(Cl)cc2N1` [zisprasidone], the “Potency as 5HT2(A) receptor antagonist relative to chlorpromazine and clozapine” value [3] is reported as “significantly more potent”.
For glatiramer acetate, the “Subjects who experienced at least one relapse despite treatment” value (MS patients [4]) is listed as 66%.
With “natalizumab: humanized antibody against VLA-4; humanized IgG4κ monoclonal antibody directed against the α-4-subunit of alpha-4 integrins” the Deaths [5] was “two”, the “Difference in half-life, concurrent AVONEX versus natalizumab monotherapy” value [6, 12] was “approximately 5%” and the “Difference in steady-state clearance, concurrent AVONEX versus natalizumab monotherapy” value [6, 12] was “approximately 5%”. For the same compound, the “Serum concentrations of natalizumab on administration of AVONEX” value ([6]; small cohort with intensive pharmacokinetic sampling, placebo-controlled MS study) was “increase”, the Deaths (Crohn's Disease patients) was “Six” and the Tolerability (MS patients [7]; 3,919 subjects in MS, Crohn's Disease and rheumatoid arthritis trials) was “generally well tolerated”. For the same compound, the Occurrence of malignancy (MS patients [7]; during natalizumab treatment, balanced with control groups) was “uncommon”, the “Incidence of hypersensitivity reactions” value (MS patients [7]; human, in vivo) was “approximately 4%” and the “Incidence of serious systemic hypersensitivity reactions” value (MS patients [7]; human, in vivo) was “less than 1%”. For the same compound, the “Adverse events that led to discontinuation” value (MS patients [7]; natalizumab-treated MS patients) was 5.8%, the “Discontinuation due to urticaria” value (MS patients [7]; natalizumab-treated patients, most common cause of discontinuation) was 1.2% and the Deaths (MS patients [7]; open-label MS trials) was “Four”. For the same compound, the “Serious adverse events: MS relapse” value (MS patients [7]; placebo-controlled MS trial) was 4.7%, the “Serious adverse events: appendicitis and urinary tract infection” value (MS patients [7]; placebo-controlled MS trial) was less than 1% and the “Serious adverse events: infections and infestations” value (MS patients [7]; placebo-controlled MS trial) was 2.4%. For the same compound, the “Serious adverse events: nervous system disorders” value (MS patients [7]; placebo-controlled MS trial) was 5.9%, the “Patients with at least one serious adverse event” value (MS patients [7]; placebo-controlled MS trial, 251 of 1,617 patients) was 15.5% and the Deaths (MS patients [7]; placebo-controlled MS trials, patients who had received natalizumab) was “two”. The “Interaction between glatiramer acetate and natalizumab pharmacokinetics” value [8] was “no interactions”, the “Interaction between glatiramer acetate and natalizumab α4-integrin receptor saturation” value [8] was “no interactions” and the “Quality of life, physical and mental components of the SF-36” value ([9]; monotherapy versus placebo) was “improved”. For the same compound, the Annualized relapse rate ([9]; monotherapy, two years) was 0.235, the “Hazard ratio (95% confidence interval) for sustained progression of disability” value ([9]; natalizumab versus placebo, two years) was 0.58 (0.43, 0.77) and the “Percentage of patients with sustained progression of disability” value ([9]; two years, measured by EDSS, monotherapy) was 17%. For the same compound, the Patients remaining relapse-free ([9]; two years, monotherapy) was 67%, the “Risk reduction of disability progression” value ([9]; versus placebo, EDSS, two years) was 42% and the “Relative reduction in annualized relapse rate” value ([9]; versus placebo, two years) was 68%. For the same compound, the “Incidence of PML” value (JCV [10]; human, in vivo) was “approximately 1 /1,000”, the “Incidence of PML, 95% confidence interval” value (JCV [10]; human, in vivo) was 0.2-2.8 /1,000 and the “JCV in CSF” value (JCV [10]; human, in vivo) was “not detected”. For the same compound, the “Confirmed cases of PML” value (JCV [10]; two MS patients, one Crohn's Disease patient, two fatal) was “Three”, the “Tolerability in combination with AVONEX” value ([11]; 589 patients, up to 120 weeks) was “well tolerated” and the “Quality of life, physical components of the SF-36” value ([11]; compared to AVONEX therapy alone, trend on the mental component) was “improved”. The Patients relapse-free ([11]; two years, add-on to AVONEX) was 54%, the “Risk reduction of disability progression” value ([11]; versus AVONEX alone, EDSS, two years) was 24% and the “Relative reduction in annualized relapse rate” value ([11]; versus AVONEX, two years) was 55%.
